Assay [1] deals with T1, FGFR1c extracellular domain-IgG fusion protein (Homo sapiens, UniProt P11362).
T1 construct: human FGFR Ic (residues 1-377); made in house
T1 sequence (P11362 22-377): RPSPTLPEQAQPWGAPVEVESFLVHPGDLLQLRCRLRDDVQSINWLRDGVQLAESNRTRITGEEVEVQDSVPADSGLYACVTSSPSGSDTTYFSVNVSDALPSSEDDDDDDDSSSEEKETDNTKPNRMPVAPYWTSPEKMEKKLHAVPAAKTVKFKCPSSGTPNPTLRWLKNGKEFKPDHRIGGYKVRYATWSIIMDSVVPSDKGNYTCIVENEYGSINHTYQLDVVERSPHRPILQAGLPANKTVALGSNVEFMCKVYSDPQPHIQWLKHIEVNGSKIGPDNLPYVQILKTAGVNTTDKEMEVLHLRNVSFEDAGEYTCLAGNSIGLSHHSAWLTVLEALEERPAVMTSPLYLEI
Description: Eu-labeled FGFR-IgG displacement from immobilized phagemid. In kind it is binding. To be noted: phage-displayed peptide, FIG. 7, read-out: IC50, displacement of Europium-labeled FGFR-IgG by unlabeled FGFR-IgG. As to the method: The immobilization of phagemid using antibodies, followed by probing with selected ligand in an ELISA format has been reported previously (Valadon, P. & Scharff, M. D., 1996 J. Immunol. Methods 197, 171-179). We developed a more sensitive detection method using Europium chelate-conjugated target receptor.
Nunc Maxisorp 96-well plates were coated with […] anti-M13 antibody in […] 50 mM Na2CO3 pH 9.6 and blocked using the conditions described in Example 2. Phagemid (˜10^11 cfu) were applied to wells in binding buffer for 1 h and washed 6 times with PBS, 0.05% Tween 20, and 2 times with Delphia Wash Buffer (E&G Wallac). Serial dilutions of unlabeled FGFR-IgG were added along with a constant amount (500 pM−2.5 nM) of Europium-labeled FGFR-IgG in Delphia Assay Buffer (prepared according to instructions from E&G Wallac), and reactions allowed to incubate for 2 h. Wells were washed 8× in Delphia Wash Buffer, treated with 100 μL of Delphia Enhancer Solution and fluorescence measured. IC50 values were determined from four-parameter fits to displacement plots.

For assay [2], the system named is L6 myoblast cell lines stably expressing FGFR1c. Description: c-fos mRNA expression in L6 myoblasts stably expressing FGFR1c. It counts as cell-based.
Assay [3] relates to control L6 cells. Description: c-fos mRNA expression in control L6 cells that do not express FGFR. It counts as cell-based.
The test system of assay [4] is PC12 cells. Description: PC12 cell neurite outgrowth. It counts as cell-based. To be noted: for neurite outgrowth / PC12 cell differentiation: 1 nM bFGF or 2 nM C19-jun, 15 U/ml heparin, 4 days. Here is the method:
1×10^4 PC12 cells per well were plated on mouse laminin-and-poly-L-lysine-coated 24-well plates in 1 ml of media (RPMI 1640, 10% horse serum, 5% FCS, antibiotics) and stimulated with 1 nM bFGF or 2 nM C19-jun protein in the presence of 15 U/ml heparin for 4 days.

For assay [5], the system named is FGFR. Description: FGFR autophosphorylation in Swiss 3T3 cells (anti-FGFR IP, anti-phosphotyrosine blot). It counts as cell-based. To be noted: 1.0 nM bFGF or 50 nM C19jun, 15 U/ml heparin, 15 minutes. Here is the method: (§1) To determine whether C19jun could activate FGF receptors in vivo, Swiss 3T3 cells were treated with basic FGF (bFGF) or purified C19jun protein. Cell extracts were then immunoprecipitated with anti-FGFR antibodies, analyzed by SDS-PAGE and immunoblotted with anti-phosphotyrosine antibodies. Extracts from bFGF and C19jun-stimulated 293 cells expressing FGFR1c were also immunoblotted with phospho-MAP Kinase-specific antibodies.
(§2) Swiss 3T3 fibroblasts, or 293 cells expressing full-length FGFRIc were incubated in quiescing media (DMEM, 1 μg/ml insulin, 5 μg/ml transferrin, 0.5 mg/ml BSA) for 24-48 hrs, and then stimulated with 1.0 nM bFGF or 50 nM refolded C19jun protein in the presence of 15 U/ml heparin for 15 minutes at 37° C. The cells were lysed and aliquots of lysate containing equal amounts of total protein were either analyzed directly by immunoblotting with phospho-MAPKspecific antibodies and anti-total MAPK antisera (New England Biolabs) or immunoprecipitated with anti-FGFR antisera and immunoblotted with anti-phosphotyrosine antibodies (Upstate Biotechnology, Inc.). Both bFGF and C19jun induced FGFR autophosphorylation and MAP kinase phosphorylation.

Assay [6] has as its system Swiss 3T3 fibroblasts. Description: BrdU incorporation (mitogenesis) in Swiss 3T3 fibroblasts. In kind it is cell-based. Here is the method:
6×Histidine-tagged Clone 19-jun protein (FIG. 1A) was expressed in bacteria and purified by metal affinity chromatography as described in Example 5. Assay of BrdU incorporation, a measure of entry of cells into S-phase and therefore of mitogenesis, was performed according to manufacturers instructions (Cell proliferation ELISA, BrdU, Cat. No. 1-647-229, Boehringer-Mannheim, Indianapolis, Ind.). Briefly, 1×10^4 Swiss 3T3 cells per well were plated on gelatin-coated 96-well microtiter plates in complete media (DMEM, 10% FCS, antibiotics), incubated 24 hours, and the media changed to quiescent media for an addition 24 hours (DMEM containing 0.5 mg/ml bovine serum albumin, 1 μg/ml insulin, 5 μg/ml transferrin, antibiotics). The cells were then treated with bFGF or Clone 19-jun protein at the indicated concentrations in the presence of 15 U/ml heparin. 18 hours later, BrdU was added, the cells incubated an additional 4 hours, and assayed as described. […] Heparin alone had no effect, nor did a control protein expressed and purified in the same manner in which the C19 sequence was deleted.

In assay [7] the test system is 293 cells expressing full-length FGFR1c. Description: MAP kinase phosphorylation in 293 cells expressing FGFR1c. To be noted: 1.0 nM bFGF or 50 nM C19jun, 15 U/ml heparin, 15 minutes. In kind it is cell-based. As to the method:
as §1, §2

The test system of assay [8] is Swiss 3T3 cells. Description: Swiss 3T3 proliferation, WST-1 long term assay. It counts as cell-based. To be noted: WST-1, 4 successive days, 15 U/ml heparin, FIG. 4. As to the method:
Swiss 3T3 cells were plated on gelatin-coated 96-well microtiter plates in quiescent media containing the indicated concentrations of bFGF or C19-jun protein and 15 U/ml heparin and cell number estimated on each of 4 successive days by the WST-1 assay as per manufacturers instructions (Cell proliferation Reagent WST-1, no. 1644807, Boehringer-Mannheim).
(In general: Tetrazolium assays rely on reduction of a dye to a coloured formazan, in cell work by metabolically active cells.)

Assay [9] has as its system Swiss 3T3 cells. Description: Swiss 3T3 mitogenesis with soluble receptor ECD competitors. In kind it is cell-based. As to the method:
To further examine the specificity of C19jun for FGFR, Swiss 3T3 cells were stimulated with C19jun in the presence of protein representing the soluble extracellular binding domain (ECD) of various receptors used as binding competitors. The mitogenic activity of C19jun was abolished by pre-incubation of the fusion protein with excess FGFR1c ECD, but was unaffected by incubation with identical concentrations of the closely related PDGF receptor ECD or with erythropoietin receptor ECD. […] Similar results were observed when phosphorylation of MAPK was analyzed in these cells.
(§3) Protein representing the linker segments and c-jun leucine zipper without the C19 sequence (FIG. 2) was expressed, purified, and characterized as for C19jun. C19 peptide with an intrapeptide disulfide bond was synthesized, purified by HPLC, and characterized by mass spectroscopy. C19junΔhep protein was prepared by changing human c-jun residues Arg276, Arg279, Lys285, and Lys288 in the leucine zipper domain to glutamines. Expression, purification, and characterization was as for C19jun. […] The extracellular ligand-binding domain of human FGFR Ic (residues 1-377) and human erythropoietin receptor (residues 1-250) were fused to the Fc region of human IgG1, expressed in baculovirus and purified by protein A affinity chromatography. Activity of the fusion proteins was confirmed by binding of [^125I]-labeled ligands. PDGF receptor Fc fusion protein was from R&D Systems.

Assay [10] in a line: Binding to heparin agarose beads.
In assay [11] the target is T2, FGFR1c ECD (Homo sapiens, UniProt P11362).
T2 construct: human FGFR Ic (residues 1-377); made in house
T2 sequence (P11362 22-377): T1 sequence (P11362 22-377)
Description: BIAcore real-time kinetic analysis on immobilized FGFR1c ECD. In kind it is binding. The settings on record: in vitro, absence of heparin. As to the method:
Apparent affinities for immobilized FGFR1c ECD were determined using BIAcore real-time kinetic analysis in the absence of heparin.
as §3, with “Activity of the fusion proteins was confirmed by binding of [^125I]-labeled ligands.” left out
For orientation: SPR reads the build-up and loss of mass on a sensor chip optically.

The test system of assay [12] is human endothelial cells. Description: Proliferation of human endothelial cells. In kind it is cell-based.
Where [13] appears, read: Swiss 3T3, identical concentration.

As to TLVCDTVLEGQWRVCNWE [F12 clone], the IC50 in assay [1] was ~12 nM.

Consider “bFGF: basic fibroblast growth factor, natural FGF receptor ligand used as comparator [reference compound]”, for which the “c-fos mRNA expression in FGFR-expressing L6 cells” value in assay [2] is “stimulated c-fos mRNA expression”. Moreover, the “c-fos mRNA expression in control L6 cells” value in assay [3] is “neither was active”. Besides, the “neurite outgrowth / PC12 cell differentiation” value in assay [4] is given as “appearance of neurite extensions”. Further, in [5], the FGFR autophosphorylation result is recorded as “induced”. Besides, in assay [6] (Swiss 3T3, 15 U/ml heparin, FIG. 3, read-out: EC50 stimulation of mitogenesis (BrdU incorporation)), the EC50 was determined as 0.14 nM. For the same molecule, the MAP kinase phosphorylation result in assay [7] was “induced”.

B1: C19jun: C19 sequence fused via flexible linker to human c-jun leucine zipper (residues 276-314) flanked by cysteines, polyhistidine tag; SEQ ID NO:41 (protein)
chain: MAESGDDYCVLVFTDSAWTKICDWSHFRNGPGGGSGGGSGGGSGGGSGGGSRCGGRIARLEEKVKTLKAQNSELASTANMLREQVAQLKQKVMNHGGCGGSGGHHHHHH
modifications: SyArtificial Sequence
As to B1, the “Swiss 3T3 proliferation in long term assay” value in [8] is listed as “equal or greater extent than 1 nM bFGF”. Also, in [8] (listed as C19-jun), the “Swiss 3T3 proliferation in long term assay” value was “as well or better than bFGF”. Besides, the “c-fos mRNA expression in FGFR-expressing L6 cells” value in [2] was “stimulated c-fos mRNA expression”. In addition, in assay [3], the “c-fos mRNA expression in control L6 cells” value is “neither was active”. Moreover, in assay [9] (Swiss 3T3), the “mitogenic activity after pre-incubation with excess FGFR1c ECD” value was “abolished”. Moreover, in [9] (setting [13]), the “mitogenic activity after incubation with PDGF receptor ECD” value is given as “unaffected” and the “mitogenic activity after incubation with erythropoietin receptor ECD” value was “unaffected”. Moreover, in assay [10], the heparin binding entry is “quantitatively and specifically bound to heparin agarose beads”. Besides, in assay [4], the “heparin dependence of morphogenic activity on PC12 cells” value is given as “required for the morphogenic activity” and the “neurite outgrowth / PC12 cell differentiation” value is recorded as “induces PC12 cell differentiation as well or better than bFGF”. Besides, the FGFR autophosphorylation result in [5] is “induced”. Further, in [6] (Swiss 3T3, presence and absence of heparin), the “heparin dependence of mitogenic activity” value is on record as “required for optimal mitogenic activity”. Further, the “binding to immobilized FGFR ECD” value in assay [11] is “high affinity and specificity”. Further, the “proliferation of human endothelial cells” value in assay [12] is “stimulated the proliferation”. Also, the MAP kinase phosphorylation result in assay [7] is “induced”.

The IC50 is the midpoint of a concentration-inhibition curve.

The values are drawn from patent US6548634B1, “Synthetic peptides having FGF receptor affinity” (priority 1998, dated 2003).
